# According to the RNAGym collection of RNA variant scans (doi:10.1073/pnas.2313332121):
# Variants at the floor of the assay were thinned out.
# B1: TPR 5TU (parent)
# chain: GGAUCUUCUCGAUCUAACAAAAAAGACAAAUCUGCCACAAAGCUUGAGAGCAUCUUCGGAUGCAGAGGCGGCAGCCUUCGGUGGCGCGAUAGCGCCAACGUUCUCAACUAUGACACGCAAAACGCGUGCUCCGUUGAAUGGAGUUUAUCAUG
# Variants of: B1
# Assay: polymerase ribozyme fitness, log enrichment relative to wild type (log ratio); higher = more active; in vitro selection for triplet polymerase activity
# In short: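 Mutant libraries for each subunit of a heterodimeric triplet polymerase ribozyme were made by PCR and then transcribed. Each library underwent one round of in vitro selection in triplicate: annealing with a biotinylated primer, the partner subunit and triplets, frozen incubation at −7 °C, gel excision of extended constructs, streptavidin-bead capture and RT-PCR. Input and output libraries were Illumina-sequenced, and only genotypes with ≥10 input reads and ≥1 read per output were kept. Fitness is the logarithm, base 2, of genotype enrichment over wild-type enrichment, computed from inverse-variance-weighted replicate averages.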
row,Variant,polymerase ribozyme fitness (log ratio)
1,G58A A64G A91C A147U,≤ -4.2
2,G58C A89G,-0.995
3,G58A U61A A107G C118G A119G,≤ -4.2
4,G58A U77C G80U U90G C93A A121G A142G,≤ -4.2
5,G58C C85U,-1.17
6,G58C A73G G84U,-1.97
7,G58U C63G A142C,-1.41
8,G58U C72U C87U C99G G141C,≤ -4.2
9,G58A A73G C116U,0.431
10,G58A G83U,0.174
11,G58C G70C G141A,≤ -4.2
12,G58A G80U G84A G88A,≤ -4.2
13,G58A C75U C96G,0.314
14,G58A C85G C118A G126C,-3.62
15,G58C C79G A107U U134A U139C,≤ -4.2
16,G58C A66C C87G U139A,≤ -4.2
17,G58A G59A A122G U148C,-2.64
18,C57U G128U,-3.2
19,G58C A115U U127C U144G,0.143
20,G58C G86C A89U,-3.91
21,G58C C63G C96G,-0.61
22,G58A G100U,-3.22
23,C57U U61G G86A A89U,-3.74
24,C57U U130G C131U,-4.19

row,Variant,polymerase ribozyme fitness (log ratio)
1,G58C A66G G140U,≤ -4.2
2,C57U U127C,-2.13
3,G58C C87U,-1.59
4,G58C C87A,≤ -4.2
5,G58A C72U C76A,-1.3
6,G58A A121C,0.557
7,G58A A66C G74C C131G G136U,≤ -4.2
8,G58U C87A U109C U148C,≤ -4.2
9,G58A A66G C93U C99U,≤ -4.2
10,C57U G140C,-3.55
11,G58A C93U,-2
12,G58C C93U,-1.71
13,C57U U135G,-4.05
14,G58A C75G C125G C129A U151G,≤ -4.2
15,G58A G83A G140U,-3.64
16,G58A G117U,1.04
17,G58A C116U,0.457
18,G58C G62C C95G,-3.72
19,G58C G83A G84U G92U U135A U139G G141A,≤ -4.2
20,G58C U61C G70C C76G C96U A138G G140U C149G,≤ -4.2
21,C57U U102A C103U,-1.15
22,G58C G94C,-0.872
23,C57U G126C,0.553
24,G58A C63G G86U G94C A137C G141U U151C,≤ -4.2

row,Variant,polymerase ribozyme fitness (log ratio)
1,G58U C85G,-1.61
2,G58A C96A A97G A106C A119U,-1.42
3,C57U U82A C93A G112U C116U,≤ -4.2
4,G58C A122G A150C,-3.46
5,G58C C103A U145G,-1.84
6,G58C C96A A115U G128U,≤ -4.2
7,G58U C75A U90A,≤ -4.2
8,G58C U139C,-3.3
9,G58A G80C,≤ -4.2
10,G58C G68A G94U C96G,≤ -4.2
11,G58A C76A G80C C85U A89G U90C U101G C149A,≤ -4.2
12,G58C C69A,-2.62
13,G58C G83C G117C,-0.409
14,G58C G83C G117C C131U,-0.976
15,G58C U134G,-3.93
16,G58C U82G C132A,-2.83
17,G58U C69A G83A,-1.52
18,G58U A64G A91G A113U U135A,≤ -4.2
19,G58C G80C C95U,≤ -4.2
20,G58A C87A A98G A121C,≤ -4.2
21,G58C C87U U135A,-2.15
22,G58A G86U,-1.12
23,G58A C87U G100C A122C G126A G141U,≤ -4.2
24,G58U,-0.0298

row,Variant,polymerase ribozyme fitness (log ratio)
1,G58A,0.338
2,G58C,0.0074
3,G58A C75U C118G,-0.168
4,G58C G86U U104G,-1.93
5,G58C U61A C79A A91G G117A,≤ -4.2
6,G58A C75U,-1.82
7,C57U U151A,-4.18
8,G58A C85A,-1.11
9,G58C C87U A115G C116G A121U G136U,-4.12
10,G58C U82G C99G,-1.45
11,G58A U135C,-1.39
12,G58C C96G,-1.88
13,G58C C85U A89G G136A,-3.96
14,G58A G86U A119U,-2.06
15,G58A U82C A147C C149G,≤ -4.2
16,G58A G92A C123G,-4.01
17,G58A C75U A91G C95G,≤ -4.2
18,G58A C87U G92A A150G,-0.884
19,G58A U82A A89U A119G A120U G126U,-0.897
20,G58A C87U C93A U130G,≤ -4.2
21,G58C C75G C76G C85U,≤ -4.2
22,G58C U61A G74U U77G C79U G80C C87A,≤ -4.2
23,G58A U61A G88C G133U,≤ -4.2
24,G58U A150C,-3.57

row,Variant,polymerase ribozyme fitness (log ratio)
1,G58A A98G G100A U104G A113G A119U A120U A122U U145C,≤ -4.2
2,G58U C85A C95G C96U,-3.24
3,G58A A73C,-1.62
4,G58C G86U C105A,-2.89
5,G58A G83A A147C,-0.252
6,G58A C103A,-1.19
7,G58C C118A,-0.0404
8,G58A A142U,-0.199
9,G58U A97G A98G G117U U146G,-0.542
10,G58U C69G C87G,≤ -4.2
11,G58A A73U U101G U102A U109A,≤ -4.2
12,G58C C96U A98G A121G,-0.614
13,G58C G59C C96U C131A,-4.15
14,G58A G81A,-0.536
15,G58A C87U C108U A142C,-3.89
16,C57U G94U C118U G143U,≤ -4.2
17,G58A A60C C63A U82G G88C C95A A113G A147G,≤ -4.2
18,G58U A142C,-0.408
19,G58C G83U,-2.88
20,G58A C103U C118A C132A A138C,≤ -4.2
21,G58C A60G,0.746
22,G58C C72U A150U,0.398
23,G58C A107C,-4.06
24,G58C U78G C85G A106U A113G U144C,≤ -4.2

row,Variant,polymerase ribozyme fitness (log ratio)
1,G58C U61G U146G,-3.76
2,G58U A137C,-3.03
3,G58A U145G,0.851
4,G58A G86A A110G A115C U151G,≤ -4.2
5,G58A A91C,≤ -4.2
6,G58A C85G G100U U144A,≤ -4.2
7,G58C C72U U101G,0.371
8,G58C A97G A98U U145C,-0.616
9,G58C G152A,-2.01
10,G58C C87G A98G,≤ -4.2
11,G58A G59U G62C G67U A73U C96A U130G A138U A150G,≤ -4.2
12,G58C C63U A120C,-0.534
13,G58C U135G,-3.82
14,G58C G140A,-3.51
15,G58C A91C C125G,≤ -4.2
16,G58C G84A G112U,≤ -4.2
17,C57U U61A G81C A107U,≤ -4.2
18,C57U U61A A89U A106G A122G A150G,-3.73
19,G58A G94A,-0.945
20,G58A G94C,-0.674
21,G58C U144C,0.128
22,G58A C85U A115U U144G,-1.46
23,G58C A60G C75U,0.32
24,G58A A97U A107U,-4.18

row,Variant,polymerase ribozyme fitness (log ratio)
1,G58A C87U,-0.808
2,G58A U146G,0.231
3,G58C A98U,-0.459
4,G58C C87A U109C U130G,≤ -4.2
5,G58U A91G,-2.46
6,G58C G84U G136U,-3.72
7,G58A G133A,-4
8,G58C U111G C116A A137C,≤ -4.2
9,G58C C79U C85G G141U,≤ -4.2
10,C57U U78A G80A A138G U139G,≤ -4.2
11,G58U C87U C125G,-0.741
12,G58A G88U C96U C118A C125A G133A,≤ -4.2
13,G58C G80A C95U U127G C149G,≤ -4.2
14,G58A A89U C96A A115G,-1.15
15,G58C G83U C85G,-3.33
16,G58A U82C G92C A110U G136A,≤ -4.2
17,G58A A64U G74A C79A U90C C96A C149A,≤ -4.2
18,G58C C85A A110C U111G,≤ -4.2
19,G58A U102G A121U,-2.85
20,G58C C63U U102G A106U G126A C132A,≤ -4.2
21,G58C A64G G65A G71A C95U U101G,≤ -4.2
22,G58C U102A C114A,-4.12
23,G58C C63U C95G,-2.14
